Data: US20170158755A1 (PROTHENA BIOSCIENCES, published 2017)

Target: T1, mouse His-laminin-α4 (mouse, UniProt P97927 826-1816, limits assumed)
T1 construct: Bought His-tagged recombinant protein; also called Murine LAMA4; recombinant mouse LAMA4-His
T1 sequence (looked up): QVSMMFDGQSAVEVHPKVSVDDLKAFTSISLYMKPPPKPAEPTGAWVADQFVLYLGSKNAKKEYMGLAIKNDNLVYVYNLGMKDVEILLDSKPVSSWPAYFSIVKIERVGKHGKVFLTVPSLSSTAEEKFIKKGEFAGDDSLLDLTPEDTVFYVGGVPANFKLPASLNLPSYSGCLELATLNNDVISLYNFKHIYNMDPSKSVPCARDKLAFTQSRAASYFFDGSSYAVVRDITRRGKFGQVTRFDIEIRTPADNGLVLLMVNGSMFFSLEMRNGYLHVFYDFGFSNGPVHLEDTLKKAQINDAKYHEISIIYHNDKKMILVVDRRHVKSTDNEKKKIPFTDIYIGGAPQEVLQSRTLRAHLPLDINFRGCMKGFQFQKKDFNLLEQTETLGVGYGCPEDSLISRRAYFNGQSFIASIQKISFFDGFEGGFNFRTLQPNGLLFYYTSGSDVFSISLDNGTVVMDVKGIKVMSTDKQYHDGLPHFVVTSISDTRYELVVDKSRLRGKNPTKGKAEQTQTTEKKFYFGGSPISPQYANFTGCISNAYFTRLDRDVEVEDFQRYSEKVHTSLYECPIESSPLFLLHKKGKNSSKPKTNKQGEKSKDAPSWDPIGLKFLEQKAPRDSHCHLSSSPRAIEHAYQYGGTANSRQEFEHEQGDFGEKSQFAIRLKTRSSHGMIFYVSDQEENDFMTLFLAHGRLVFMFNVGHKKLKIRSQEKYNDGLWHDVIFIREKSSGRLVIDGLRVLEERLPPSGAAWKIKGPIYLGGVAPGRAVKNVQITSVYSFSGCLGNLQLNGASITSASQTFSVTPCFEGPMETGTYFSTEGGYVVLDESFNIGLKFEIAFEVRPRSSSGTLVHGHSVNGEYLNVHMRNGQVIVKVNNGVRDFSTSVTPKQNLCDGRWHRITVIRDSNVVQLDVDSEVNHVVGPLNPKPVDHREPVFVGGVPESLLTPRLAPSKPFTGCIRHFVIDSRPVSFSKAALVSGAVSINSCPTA
Assay: ELISA hMCAM-Fc capture blocking assay; antibody pre-incubated with mouse LAMA4-His; blocked partner: captured hMCAM-Fc

IC50 (read off the curve): ~0.1 µg/mL
B1: mouse monoclonal antibody 19C12 (antibody, V domains shown)
VH: QVQLQQSGAELVKPGASVKISCKASGYAFSTYWMNWVKQRPGEGLEWIGQIYPGDGDTNYNGKFKGKATLTADKSSSTAYMQLSSLTSEDSAVYFCARSDGYYDYWGQGTTLTVSS
VL: NIVLTQSPASLAVSLGQRATISCRASESVDSYGTSFMHWYQQKPGQPPKLLICLASSLESGVPARFSGSGSRTDFTLTIDPVEADDAATYYCQQNNEDPPTFGAGTKLELKR
notes: Mouse hybridoma antibody; Mouse IgG2b was used as its isotype control; also called m19C12
